This is an account of results in PMC5624926.

The data set can be described thus: recombinant expression of point mutants. The following applies: glycan lost; control: wild-type CD22 20-330.

Consider CD22 (Siglec-2): N101A, for which the expression_or_secretion entry is given as “decreases”.
